Tests used:
[1] = molecular target: monkey PD-L1 Fc fusion (monkey (Rhesus macaque, Macaca mulatta)) (UniProt F6PJN1); experiment: KinExA, ratio of KD values
[2] = molecular target: T1, recombinant human PD-L1 Fc fusion (human, UniProt Q9NZQ7 19-239); experiment: ELISA on immobilized recombinant human PD-L1-Fc (2 µg/mL), detection with Protein L-HRP, A450 nm
T1 construct: Bought Fc fusion (RnD Systems 156-B7); also called rhPD-L1 Fc fusion; not shown: Fc part of the bought fusion
Procedure: After, blocking with 5% non-fat dry milk, increasing concentrations of scFv was added and detected by Protein L-HRP (Sigma-Aldrich).

[3] = molecular target: monkey PD-L1 Fc fusion (monkey (Rhesus macaque, Macaca mulatta)) (UniProt F6PJN1); experiment: KinExA, room temperature, two curves (50 pM and 10 pM scFv)

T1 sequence (Q9NZQ7 19-239 limits assumed): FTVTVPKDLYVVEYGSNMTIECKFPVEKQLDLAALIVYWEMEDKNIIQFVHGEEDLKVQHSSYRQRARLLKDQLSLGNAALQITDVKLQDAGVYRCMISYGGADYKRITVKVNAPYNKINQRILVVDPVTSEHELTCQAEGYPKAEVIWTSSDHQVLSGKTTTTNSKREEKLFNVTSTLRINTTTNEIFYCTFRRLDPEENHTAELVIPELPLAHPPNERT

fold tighter affinity than binding to human PD-L1 [1]: 2.7 fold
EC50 (read off the curve) [2]: ~8 ng/mL
Kd [3]: 3.3 pM
B1: anti-PD-L1 scFv (scFv)
scFv: EIVMTQSPSTLSASVGDRVIITCQASEDIYSLLAWYQQKPGKAPKLLIYDASDLASGVPSRFSGSGSGAEFTLTISSLQPDDFATYYCQGNYGSSSSSSYGAVFGQGTKLTVLGGGGGSGGGGSGGGGSGGGGSEVQLVESGGGLVQPGGSLRLSCTVSGIDLSSYTMGWVRQAPGKGLEWVGIISSGGRTYYASWAKGRFTISRDTSKNTVYLQMNSLRAEDTAVYYCARGRYTGYPYYFALWGQGTLVTVSS
notes: Humanized scFv with rabbit CDRs, VL-linker-VH; also called scFv1; scFv control
